Data published in article doi:10.1101/2020.04.14.040436, “Molecular basis for the recognition of steroidogenic acute regulatory protein by the 14-3-3 protein family” (bioRxiv, 2020).

T1: STARD1_(46-285)-S56A/L59P phosphorylated at Ser57 and Ser195 (human, UniProt P49675 46-285, S56A | L59P, phosphoserine at 57; phosphoserine at 195)
T1 sequence: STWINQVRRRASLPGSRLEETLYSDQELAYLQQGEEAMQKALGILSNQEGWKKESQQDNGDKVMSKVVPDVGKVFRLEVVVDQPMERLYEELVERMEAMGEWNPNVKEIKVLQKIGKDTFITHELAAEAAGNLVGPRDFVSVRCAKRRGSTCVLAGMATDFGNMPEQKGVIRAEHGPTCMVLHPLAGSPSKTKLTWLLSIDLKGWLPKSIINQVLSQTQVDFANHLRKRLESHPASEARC

T2: wild-type full-length human 14-3-3γ (human, UniProt P61981 1-247)
T2 construct: 14-3-3γ, human, wild type, full length; Called untagged in the preparation of the heterodimer; also called untagged 14-3-3γ
T2 sequence (looked up): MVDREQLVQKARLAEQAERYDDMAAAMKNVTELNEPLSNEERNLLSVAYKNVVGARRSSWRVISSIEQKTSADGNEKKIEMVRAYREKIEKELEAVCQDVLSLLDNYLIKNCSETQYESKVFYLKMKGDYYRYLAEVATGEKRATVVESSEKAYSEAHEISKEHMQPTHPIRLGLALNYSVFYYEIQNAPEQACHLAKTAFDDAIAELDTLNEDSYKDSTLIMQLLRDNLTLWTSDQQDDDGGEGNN


Experiments:
[1] = biological target: T1, STARD1_(46-285)-S56A/L59P …; assay: SPR
[2] = biological target: T1, STARD1_(46-285)-S56A/L59P …; assay: SPR; remark: listed apart in the source
[3] = biological target: the molecule itself; assay: crystal structure; phosphorylated chimeras of 14-3-3σΔC with the STARD1 peptide joined by a GSGSL linker; sitting-drop vapor diffusion; data at 100 K
[4] = biological target: T2, wild-type full-length human 14-3-3γ; assay: time-resolved fluorescence anisotropy; 1 µM 22NC, 10 µM pSTARD1, 100 µM 14-3-3γ; 20 mM Tris-HCl pH 7.5, 150 mM NaCl, 5 mM MgCl2; 25 °C; correlation time of the 22NC bound to STARD1; conditions: both partners purified

Binder	koff [1] [s⁻¹]	Ka [2] [M⁻¹]	binding result [4]	binding result [3]
14-3-3ε/γ heterodimer (His6-tagged 14-3-3ε with untagged 14-3-3γ) (complex) chain 1: MDDREDLVYQAKLAEQAERYDEMVESMKKVAGMDVELTVEERNLLSVAYKNVIGARRASWRIISSIEQKEENKGGEDKLKMIREYRQMVETELKLICCDILDVLDKHLIPAANTGESKVFYYKMKGDYHRYLAEFATGNDRKEAAENSLVAYKAASDIAMTELPPTHPIRLGLALNFSVFYYEILNSPDRACRLAKAAFDDAIAELDTLSEESYKDSTLIMQLLRDNLTLWTS chain 2: MVDREQLVQKARLAEQAERYDDMAAAMKNVTELNEPLSNEERNLLSVAYKNVVGARRSSWRVISSIEQKTSADGNEKKIEMVRAYREKIEKELEAVCQDVLSLLDNYLIKNCSETQYESKVFYLKMKGDYYRYLAEVATGEKRATVVESSEKAYSEAHEISKEHMQPTHPIRLGLALNYSVFYYEIQNAPEQACHLAKTAFDDAIAELDTLNEDSYKDSTLIMQLLRDNLTLWTSDQQDDDGGEGNN	0.0057	67000		
chimeric 14-3-3σΔC protein with the STARD1 Ser195 phosphopeptide (other, human, phosphoserine at Ser195 of the STARD1 peptide, 14-3-3σ, human, without the C-terminal tail (14-3-3σΔC core); linker; steroidogenic acute regulatory protein STARD1 (StAR), human, stretch around Ser195; also called protein with fused Ser195 peptide; not shown: His, N-terminal, cleaved) MERASLIQKAKLAEQAERYEDMAAFMKGAVEKGEELSCEERNLLSVAYKNVVGGQRAAWRVLSSIEQKSNEEGSAAAGPEVREYREKVETELQGVCDTVLGLLDSHLIKEAGDAESRVFYLKMKGDYYRYLAEVATGDDKKRIIDSARSAYQEAMDISKKEMPPTNPIRLGLALNFSVFHYEIANSPEEAISLAKTTFDEAMADLHTLSEDSYKDSTLIMQLLRDNLTLWTGSGSLRRGSTCVLA				binds

Continued, in another order:

koff [1] [s⁻¹]	Ka [2] [M⁻¹]	binding result [4]	Binder	binding result [3]
0.0058	77000		His6-tagged 14-3-3ε (natural protein) MDDREDLVYQAKLAEQAERYDEMVESMKKVAGMDVELTVEERNLLSVAYKNVIGARRASWRIISSIEQKEENKGGEDKLKMIREYRQMVETELKLICCDILDVLDKHLIPAANTGESKVFYYKMKGDYHRYLAEFATGNDRKEAAENSLVAYKAASDIAMTELPPTHPIRLGLALNFSVFYYEILNSPDRACRLAKAAFDDAIAELDTLSEESYKDSTLIMQLLRDNLTLWTS	
		binds	STARD1_(46-285)-S56A/L59P phosphorylated at Ser57 and Ser195 (domain or fragment, human, UniProt P49675 46-285, looked up, phosphoserine at 57; phosphoserine at 195, steroidogenic acute regulatory protein STARD1 (StAR), human, residues 46-285 of the 285-residue pre-protein; also called pSTARD1; pSTARD1_(46-285)-S56A/L59P) STWINQVRRRASLPGSRLEETLYSDQELAYLQQGEEAMQKALGILSNQEGWKKESQQDNGDKVMSKVVPDVGKVFRLEVVVDQPMERLYEELVERMEAMGEWNPNVKEIKVLQKIGKDTFITHELAAEAAGNLVGPRDFVSVRCAKRRGSTCVLAGMATDFGNMPEQKGVIRAEHGPTCMVLHPLAGSPSKTKLTWLLSIDLKGWLPKSIINQVLSQTQVDFANHLRKRLESHPASEARC	
